Assay: yeast display, Sf9 membrane polyspecificity reagent, FACS + sequencing; frameworks hold sequencing errors
Outline: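 Nanobodies from a synthetic yeast display library (Saccharomyces cerevisiae BJ5465), induced 36–48 hours with galactose, were stained 1 hour at 4 °C with 10% biotinylated, detergent-solubilized Sf9 membrane reagent, enriched on streptavidin microbeads, then FACS-sorted. Anti-HA (expression) and streptavidin (reagent binding) fluorescence set low and high (top ~1%) gates. Polyreactivity labels come from the gate of origin. Genes were colony-PCR amplified, MiSeq 2 × 250 sequenced and filtered by CDR length.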

Sequence	polyreactivity (PSR sort gate)
QVQLVESGGGLFQAGGSLRLSCAASGRTFHANAMGWYRQAPGKERELVARINWSGTSTYYADSVKGRFTISRDNAKNTVYLQMNSLKPEDTAVYYCAAGWIRQYSSLYDYWGQGTQVTVSS	high polyreactivity
QVQLVESGGGLFQAGGSLRLSCAASGRTFLYYTMGWYRQAPGKERELVAAITSGTSTNYADSVKGRFTISRDNAKNTVYLQMNSLKPEDTAVYYCNKRAARSLNGYPLYGYYYWGQGTQVTVSS	low polyreactivity
QVQLVESGGGLFQAGGSLRLSCAASGRTFRYYVMGWYRQAPGKERELVAAISKSGASTYYADSVKGRFTISRDNAKYTVYSQMNSLKPEDTAVYYCAAGGVYSIYRTSRVGYDYWGQGTQVTVSS	high polyreactivity
QVQLVESGGGLFQAGGSLRLSCAASGRTFSRYVMGWYRQAPGKERELVAAISRTGGRKYYADSVKGRFTITRDNAKNTVYLQMNSLKPEDTAVYYCNAGTVLISTYDYWGQGTQVTVSS	high polyreactivity
QVQLVESGGGLFQAGGSLRLSCAASGRTIYLNAMGWYRQAPLKERELVAAITSSGGRTYYADSVKGRFTISRDNAKNSVYLQMNSLKPEDTAVYYCAAVVSSKPSFYWGQGSQVTVSS	low polyreactivity
QVQLVESGGGLFQAGGSLRLSCAASGSIFDSYAMGWYRQAPGKDREVVAAISSDCGSTYYADSVKGRFTISRDNAKNTVYLQMNSLKPEDTAVYFCAVEDYSSPYDFDSWGQGTQVTVSS	low polyreactivity
QVQLVESGGGLFQAGGSLRLSCAASGSIFRYYVMGWYRQAPGKEMELVAAISTGDRTNYADSVKGRFTISRDNAKNTVYLQMNSLKPEDTAVYYCNADYVVGWARLEFNYWGQGTQVTVSS	low polyreactivity
QVQLVESGGGLFQAGGSLRLSCAASGSTFVANAMGWYRQAPGKERELVAAISSSGGSTYYADSVKGRFTISRDIAKNTVYLQMNSLKHDDTAVYYCNARSISRKKGYPPQRRDGYWGQGTQVTVSS	high polyreactivity
QVQLVESGGGLFQAGGSLRLSCAASGSTFYRYTMGWYRQAPGKERELVASISRSGGSTYYADSVKGRFTISRDNAKNTVYLQMNSLKPEDTAVYYCAAKAQGKYYQYNYWGQGTQVTVSS	high polyreactivity
QVQLVESGGGLFQAGGSLRLSCAASGSTFYTNAMGWYRQAPGKERELVAAISWSGGSTYYADSVKGRFTIARDNAKNPVYLQLNSLKPEDTAVYYCDVSGTHFRYDYWGQGTQVTVSS	high polyreactivity
QVQLVESGGGLFQAGGSLRLSCAASGTTFAYYTMGWYIQAPGTERELVAAITSGGRTSYADSVKGRFTISRDNAKNTVYLLMNSLKPEDTAFFSCAKCRKPGYYYWGQGNQVTVSS	high polyreactivity
QVQLVESGGGLFQAGGSLRLSCAASGYIFRSYAMGGYRQAPGKERELVAAITRSGGSTYYADSVKGRFTISRDNAKNTVYFQMNSLKPEDTAVYYCAVLPRGSNGMDYCGQGTQVTVSS	low polyreactivity
QVQLVESGGGLFQAGGSLRLSCAATGRIFYSNAMGWYRQAPGKERELVAAINSRGGRTYYADSLKGRFTISRDNAKNTVYLQMNSLKPEDTAVYYCAAPTGPKGYYSDRGDSWGQGTQVTVSS	high polyreactivity
QVQLVESGGGLFQAGGSLRLSCAATGRTFDPYAMGWYRQAPGKERELVAVISISDGSTYYADSVKGRFTISRDNAKNTVYLQMHSLKPEDTAVYYCAAYVFYDYWTLEYWGQGTQVTVSS	high polyreactivity
QVQLVESGGGLFQAGGSLRLSCAATVSNYRYYAMGWYRQAPGKETELVAYITSSGGSTYYADSVKGLFTISRDYAKNTVYLQMNSLKPEDTAVYYCAALSWLYVYPFTEYDYWGQGTQVTVSS	low polyreactivity
QVQLVESGGGLFQAGGSLRLSCDPSGSIFEYYAMGWYRQAPGKERELVAAITQSGGSTYYADSVKGRFHKFTRQCEEYRLFPDEQPETGRYRGISLAADAECYQNDYALDYWGQGTQVTVSS	low polyreactivity
QVQLVESGGGLFQAGGSLRLTCAASGFTFSYNAMGWYRQAPGKERELVAAISSSGGSTYYADSVKVRFTISRENAKNTVYLPMNSLKPVDTAVYYCAVPYLTLYGRTYDYWGQGTLVTVSS	high polyreactivity
QVQLVESGGGLFQAGGTLRLSCDASGLIFLSYGMAWYRQAPGKERELVAAISSGGSTYYADSVKGRFTISRDNAKNTDYLQMNSLKPEDTAVYYCASEQPIEFDHWGQGTQVTVSS	low polyreactivity
QVQLVESGGGLFQAGRSLRLSCAASGRIFVANAMGWYRQAPGIERELVAAISGRGSRTYYADSVKGRFTISRDNAKNTVYLQMNSLKPEDTAVYYCAARYRYDGRYDYWGQGTQVTVSS	high polyreactivity
QVQLVESGGGLFQAVGSLRLSCAASGFIFYDYAMGWYRQAPGKEMELVAAISKRGGSTYYADSVKGRFTISRDNAKNTVYLQMNSLKPEDTADYYCAAALWGWRYYYWGQGTQVTVSS	high polyreactivity
QVQLVESGGGLFQEGGSLRLSCAASGRIFGPYDMGWYRQAPGKERELVAAISQRGGTTYYADSVKGRFTISRDNAKNTVYLQMNSLKPEVTAVYYCAPKTYGWGQGTQVNVSS	high polyreactivity
QVQLVESGGGLFQEGGSLRLSCAASGRTFKYYAMGWYRQAPGKERELVASISQSGTSTYYADSVKGRFTISRDNAKSTVYLQLNSLKPEDTAVYFCGARTRYRYYSYGYWGQATQVTVSS	high polyreactivity

Sequence	polyreactivity (PSR sort gate)
QVQLVESGGGLFQSGGSLRLSCAASGITFRYYAMGWYRQAPGKERELVAAISSGGSTNYADSVKGRFTISRDNAKNSVYLQINSLKPEDTAVYYCYRRVYSRRYYGYYYWGQGTQVTVSS	high polyreactivity
QVQLVESGGGLGEAGGSLRLSCAASGSTFGYYAMGWYRQAAGKEREFVAAITGNSDNTYYADSVKGRFTISRDNATNTVYLQMNSLKPEDTAVYYCNDALDPFRFEYWRQGTQVTVSS	low polyreactivity
QVQLVESGGGLGHAGGSLRLSCAASGRIYGRNAMGWNRKAQGKERELVAAINSGVSTYYADSVKGRFTISRDNAKNTFYLQMNSLKPEDTAVYYCAKAPQRRYYDFDYWGQGTQVTVSS	low polyreactivity
QVQLVESGGGLGQAGGSLRLSCAASGFNFYGYAMGWYRQAPGKERELVAAISSGGGRTYYADSVKGLFTISRDNAKNTVYLQMNSLKPEDTAVYYCAAKVYFYTGGGGEDYWGQGTKVTVSS	low polyreactivity
QVQLVESGGGLGQAGGSLRLSCAASGFTFGGNGMGWYRPAPGKERELVASISWGGGSTYYADSVKGRFRISRDKAKNTVYLQMNSLKREDTAVYDCNADRYYWSSRPTSWFNYWGQGTQVTVSS	high polyreactivity
QVQLVESGGGLGQAGGSLRLSCAASGIIFWLYAMGWYRQAPGKDRELVAAITRSDGDTYYADSVKGRFTISRDNAKNTVYLQMNSLKPEDTAVYYCAARFTDYIHIWPFLLYNEVYYWGQGTQVTVSS	low polyreactivity
QVQLVESGGGLGQAGGSLRLSCAASGRIFGGYTMGWYRQAPGKEREFVDTISRSSGSTYYADSVKGRFTISRDHAKNTVYLQMNSLKPEDTAVYYCAAVYLYATGYDYWGQCTQVTVSS	high polyreactivity
QVQLVESGGGLGQAGGSLRLSCAASGRIFPKYVMGWYRQAPGKERELVAAIDKSADRTYYADSVKGRFTISRDNAKNTVYLQMNSLKPEDTAVYYCATAGYRLLDYWGQGTQVTVSS	high polyreactivity
QVQLVESGGGLGQAGGSLRLSCAASGRILKYYDMGWYRQAPGKERELVAAISVSGTSTYYADSVKGRFTISRDNAKNTVYLQMNSLKPEDTAVYYCATATGRYSFDYWGQGAQVTVSS	low polyreactivity
QVQLVESGGGLGQAGGSLRLSCAASGRTFGDYVMGWYRQAPGKEREFVAAITDSGDRTYYADSVKGRFTISRDNAKNTVYLQMNSLKPEDTAVYYCNDEIWDWYYWYAYWGQGTQVTVSS	high polyreactivity
QVQLVESGGGLGQAGGSLRLSCAASGRTFTYNAMGWYRQAPGKERELVAAISYSGGRTYYADSVKGRFTISRDNAKNTVYLQMNSLKPEDTAVYYCARAYLGYYGRTYEYWGQGTQVTVSS	high polyreactivity
QVQLVESGGGLGQAGGSLRLSCAASGSIFEGNGMGWYRPAPGKERELVAAITFRSGSTYYADSVKGRFTISRDNAKNTVYLQMNSLKPEDTAVYYCAADEYYQVSAYDYWGQGTQVTVSS	low polyreactivity
QVQLVESGGGLGQAGGSLRLSCAASGSIFPYYAMGWYRPAPGTERELVASINQSDGTPYYADSVKGRFTISRDNAKNTVYLQMNSLKPEDTAVYYCAADTTLQAFIRYRPIGSYDSWGQGTQVTVSS	low polyreactivity
QVQLVESGGGLGQAGGSLRLSCAASGSIFQGYTMRWYRQARGKARELVAAITRSVTSTYYADSVKGRFTISRDNAKNTVYLQMNCLKPEDTAVYYCAATAYYARYWYDYWGQGTQVTVSS	high polyreactivity
QVQLVESGGGLGQAGGSLRLSCAASGSIFRGYAMGWYRQAPGKERELVAAISWSGGSTYYADSVKGRFTISRDNAKNTVYLQMNSLKPEDTAVYYCAADRDVFGYWYYYWGQGTQVTVSS	high polyreactivity
QVQLVESGGGLGQAGGSLRLSCAASGSIFTQYAMGWFRPAPGKERELVATISKSSGSTYYADSVKGRFTNSRDNAKNTVYLQMNSLKPEDTAVYDCAARYTRAYPYYYWGQGTQVTVSS	high polyreactivity
QVQLVESGGGLGQAGGSLRLSCAASGSIFYRNARGWYRQAPGKERELVASITSGGRTNYADSVKGRFTISRDNAKYSVYLQMNSLKPEDTAVFYCARGRASYTTSGPTPYTGYGYWRQGTQVTVSS	low polyreactivity
QVQLVESGGGLGQAGGSLRLSCAASGSIFYRYAMGWYRKAPGKERELVAAITRRGARTYYADSVKGRFTISRDNAKNTVYLQLNSLKPEDTAVYYCAATYYYWTGWRYVRGDYWGQGTQVTVSS	high polyreactivity
QVQLVESGGGLGQAGGSLRLSCAASGSIRDSNAMGWYRQAPGKERELVAAITSGGSTYYADSVKGRFTISRDNAKNTVYLQMNSLKPEDTAVYYCAAAYLGYGAVQPSYEGGYWGQGTQVTVSS	low polyreactivity
QVQLVESGGGLGQAGGSLRLSCAASGSIYNDNVMGWYRQAPGKERELVAGISRSGTRTYYADSVKGRFTISRDNAKNTVYLQMNSLKPEDTAVYYCAAAYGQARRYNASQYGSWGQGTQVTVSS	high polyreactivity
QVQLVESGGGLGQAGGSLRLSCAASGSTFIDNAMGWYRQAPGKERELVAAINSSGGNTYYADSVKWRFTISRDNAKNTVYLQMNSLKPEDTAVYYCNAEFYVLYFYDYEYWGQGTQVTLSS	low polyreactivity

Reference: the nanobody polyreactivity screen of Harvey et al. (2022)
